Test results as given in the DeepSol protein solubility set.

Test: soluble on expression in E. coli; label from the status in PepcDB or PDB records

Q: For “MFGKTLLRRIACSNLNLKSRKLSGKPRLAIVGSGPAGMFACNGLLRKSNFSVDVFENSPVPFGLVRYGVAPDHQEVKNVINTFDAMFEKNRERLKLFCNVNIGRDITFDELTRGYDAVLLAYGSYKTRTLDIPGSDASNVISGSEFVGWYNGVPNASTPDLTTSNVVIVGNGNVALDCARVLSTASSGLLRISDIPGDRLNVLEGANVKDIKILGRRGPEHVSFTIKELREQFKIKDWDSKLEISEIDAKNLTESLPKLERKKKRLTEVLVKNIGIANGLRQCHFIFHRIPEKIIADSNGKVQEIIVKNNETGQEETYPCGLLIYSIGYQTLVLDGVPQNDKKMIDMKDHCRVNMVAACSSQVYATGWCAHGPHGIIVDTQQQSIFVADQIAADFAQFKDSTSNGVEELLEDRKVPFISWDEWKQIDRQEQDTGKLSGKIREKFTTFEKFLTKLKKCN”, which “soluble on expression in E. coli” value is on record?
A: Its value is “not soluble”.

Q: With “MFIESRELVMKHRIPVAKTERYWKGLEEGKVFKTVCKSCGKEHHPPRAECLCGGEVEWVEITGEGVVEAFTTVHTIPAGFEWHREPYTIAIARFGEVRVMGWAKEVRVGDVVRLKPGKDETGVWKVYFEVV” as the sequence, how does the “soluble on expression in E. coli” value read?
A: Its value is “not soluble”.

Q: For “MFIRGREMISAVIEALIGSISLSTGLHTKKIDANIRYLQQYEWFRIIYEDEKYRKLFITNYKVRSYLQSKLRVRLLVKNKNAQRRFLKLVEEQIEKRHTN”, which “soluble on expression in E. coli” value is on record?
A: Its value is “not soluble”.

Q: Which “soluble on expression in E. coli” value does the source give for “MFKGIVQGAGIIKKISKNDDTQRHGITFPKDILESVEKGTVMLVNGCSLTVVRISGDVVYFDIDQAINTTTFRELEVGNKVNLEVRPEFGSLLGKGALTGNIKGVATVDNITEEEDRLKVYIKIPKDLIENILSEDHIGINGVSHSIEEISDDIIFINYPKNLSITTNLGTLEKGSDVNVETLNVSNEWD” here?
A: Its value is “soluble”.

Q: For “MFKHIISCLLLISATSALAAEKPTLTVYTYDSFAADWGPGPAIKQAFEAECDCQLKFVALEDGVSLLNRLRMEGKNSQADVILGLDNNLVQAAEQTGLFTPSQVDTRNLTLPEPWQNKTFVPYDYGYFAFVYNKEKLKNPPKSLHELISSKEPWKVIYQDPRTSTPGLGLMLWMQKVYGDQAPQAWQQLAQKTVTVTKGWSEAYGLFLKGEADLVLSYTTSPAYHLIAEKNNNYAAADFSEGHYLQVEVAGQLAASKQPELAQRFMQFIVTPAFQNHIPTGNWMYPVIKMDLPAGFETLAVPQTALQFDAKDVADNRSKWIQAWQSAVSR”, which “soluble on expression in E. coli” value is on record?
A: Its value is “not soluble”.

Q: With “MFKKEKGGWFYMAGLKVEWNDWCPGCGNFGILSAEQQAIQELGLDPKKVVLVSGIGCSGKIPHFIRLPASGVHTLHGRALTFAIGIKLANPSLEVIVNGGDGDQLGIGVGHFVSAGRRNVDLTVIVHNNGVYGLTKGQASPTLKLGVKTKSLPKPNINSDINPIALAISSGYTFVARGYAYDVKHLKEIIKKAIKHKGLAMIDVLQPCPTYNDIHTKEYYDKRVYKLDEDPSWDPIVKKPEEMDDKMSKAILKSMEWGDRIPIGIFYQNELVSTYEQRIAERSPSYLDNPPAHDVIEFEGKPTTDVEDILKERRVT” as the sequence, how does the “soluble on expression in E. coli” value read?
A: Its value is “not soluble”.

Q: Which “soluble on expression in E. coli” value does the source give for “MFKQFIEDAKSIAERDPAATSVLEVIFLYSGFHAVCLHRIAHWFYKRNMRFIARFISQLNRFLTGVEIHPGAKIGKGLFIDHGMGVVIGETAEVGDNCTIYHNVTLGGTGKDKGKRHPTIGNNVLISTGAKVLGPFKVGDNSRIGANAVVLNEVEPNTTVVGVPGRAVKRGNQKIVPSIELDQIHIPDPVAQELCRIKQRLESLEKELMEMRRASQGSNVQEPVPQEKSCEEECKLEMGKEIADNETL” here?
A: Its value is “not soluble”.

Q: With “MFMKYALFPGCKIAFERPDLELAMREVLTALDVPFEYLSDFSCCPTWASVPSFDIEAWLAISARNISLAEEKGLDIVVGCGDCYSVLNHARDMLKREEWRERVNRILAKVGRVYRGTTKIYHIIHLLEERKIKKNLKHRLNGFVAGVQPGCHLLWPAKIFDAKEENPFFPERLKKLVEAMGAETPHYSRLEYCCGNHIDIVDYEKFLDFVQLKLQSLKEEIDPDFIVTACSTCFIQLDEGQKRLKRLGRIDYEIPVFHFPQLLAICLGSNPEKVARISSVDRSKIISEILEGRE” as the sequence, how does the “soluble on expression in E. coli” value read?
A: Its value is “not soluble”.

Q: With “MFNDLESKLQSLLERNITSVLELENWLFDELRVNAEIEEKITSSLIATYRDTDNRNMRDLHMYNQNTIQPLLKRYNAKFDQKFIECPFSNLLDERKYEFMKKARFVKSKMFNEKNIALSIKGQECITKYREIMSNITINWEGEQKTYAHVKAKLDNPNRAIRKKAWYALCEARSVVKPEVDRIMNELIQLRNEIALNAGFNNYSEYAFKQKNRDYSIDDCYKLHESIEKYVVPIWKQLGSISKKNLDVKTYRPWDLSPCNLPKAPFQNAINLLDGVEEMFRTTDLYFYEKFIHIRKAGCIDVEERENKAAGAICFTLPHSKEVFVYSNFSPSFYAINALIHEVGHAFHFYKQFKNDSSMQERYLREEVAELYSLSLELLVMDKLNVFYKQEDEYKEVQRVQIYRALSLLMSSIAGDVFQHWIYENPNHTPEERDKKYAEICKRYQYSTVDIAGLEDEIGASWIESFHYVQFPFYKIEYAIAQIGAMQLFQIYWEDPEKAIDFFKEGASADWNLSIQEIYEKTGVTFDFSEERIESTASVILDLINELK” as the sequence, how does the “soluble on expression in E. coli” value read?
A: Its value is “not soluble”.

Q: For “MFNKLSTPIHIIGGGLAGCEASWQIAQSGIPVILHEMRPQKKSEAHKTGQLAELVCSNSFRSDDSSTNAVGLLHTEMRLAKSLIMKAADANKVPAGSALAVDRDGFSKTVTAALENHPLITIKREEIQEIPENWPHIIIATGPLTSPKLAKAIQTITGTEALSFFDAIAPIIYTDSINMDICWYQSRYDKIGPEGTGKDYLNCPLNKEQYEAFVQALKNAEKTEFRDFEKTPYFDGCLPIEVMAERGLETLRHGPMKPMGLTNAHNPTVKAYAVVQLRQDNKLGTLYNMVGFQTKLKYGEQVRIFRMIPGLENAEFARLGGLHRNTYLNSPIILDQTLRLKQRPGLRFAGQITGCEGYVESSAIGLLAGRFAAAEYHYNCPCLPPLTTALGLEHHHHHH”, which “soluble on expression in E. coli” value is on record?
A: Its value is “soluble”.

Q: Which “soluble on expression in E. coli” value does the source give for “MFRAGEASKRPLPGPSPPRVRSVEVARGRAGYGFTLSGQAPCVLSCVMRGSPADFVGLRAGDQILAVNEINVKKASHEDVVKLIGKCSGVLHMVIAEGVGRFESCSSDEEGGLYEGKGWLKPKLDSKALGINRAERVVEEMQSGGIFNMIFENPSLCASNSEPLKLKQRSLSESAATRFDVGHESINNPNPNMLSKEEISKVIHDDSVFSIGLESHDDFALDASILNVAMIVGYLGSIELPSTSSNLESDSLQAIRGCMRRLRAEQKIHSLVTMKIMHDCVQLSTDKAGVVAEYPAEKLAFSAVCPDDRRFFGLVTMQTNDDGSLAQEEEGALRTSCHVFMVDPDLFNHKIHQGIARRFGFECTADPDTNGCLEFPASSLPVLQFISVLYRDMGELIEGMRARAFLDGDADAHQNNSTSSNSDSGIGNFHQEEKSNRVLVVDLGGSSSRHGPGGSAWDGVGGRGAQPWGAPWTGPFCPDPEGSPPFEAAHQTDRFWDLNKHLGPASPVEVPPASLRSSVPPSKRGTVGAGCGFNQRWLPVHVLREWQCGHTSDQDSYTDSTDGWSSINCGTLPPPMSKIPADRYRVEGSFAQPPLNAPKREWSRKAFGMQSIFGPHRNVRKTKEDKKGSKFGRGTGLTQPSQRTSARRSFGRSKRFSITRSLDDLESATVSDGELTGADLKDCVSNNSLSSNASLPSVQSCRRLRERRVASWAVSFERLLQDPVGVRYFSDFLRKEFSEENILFWQACEYFNHVPAHDKKELSYRAREIFSKFLCSKATTPVNIDSQAQLADDVLRAPHPDMFKEQQLQIFNLMKFDSYTRFLKSPLYQECILAEVEGRALPDSQQVPSSPASKHSLGSDHSSVSTPKKLSGKSKSGRSLNEELGDEDSEKKRKGAFFSWSRTRSTGRSQKKREHGDHADDALHANGGLCRRESQGSVSSAGSLDLSEACRTLAPEKDKATKHCCIHLPDGTSCVVAVKAGFSIKDILSGLCERHGINGAAADLFLVGGDKPLVLHQDSSILESRDLRLEKRTLFRLDLVPINRSVGLKAKPTKPVTEVLRPVVARYGLDLSGLLVRLSGEKEPLDLGAPISSLDGQRVVLEEKDPSRGKASADKQKGVPVKQNTAVNSSSRNHSATGEERTLGKSNSIKIKGENGKNARDPRLSKREESIAKIGKKKYQKINLDEAEEFFELISKAQSNRADDQRGLLRKEDLVLPEFLRLPPGSTELTLPTPAAVAKGFSKRSATGNGRESASQPGEQWEPVQESSDSPSTSPGSASSPPGPPGTTPPGQKSPSGPFCTPQSPVSLAQEGTAQIWKRQSQEVEAGGIQTVEDEHVAELTLMGEGDISSPNSTLLPPPSTPQEVPGPSRPGTSRF” here?
A: The value was “soluble”.

Q: Which “soluble on expression in E. coli” value does the source give for “MFRGIVQGRGVIRSISKSEDSQRHGIAFPEGMFQLVDVDTVMLVNGCSNTVVRILGDMVYFDIDQALGTTTFDGLKEGDQVNLEIHPKFGEVVGRGGLTGNIKGTALVAAIEENDAGFSVLIDIPKGLAENLTVKDDIGIDGISLPITDMSDSIITLNYSRDLLASTNIASLAKDVKVNVEILNEW” here?
A: Its value is “soluble”.
